Source: patent publication US9066986B2, “Anti-CEACAM6 antibodies and uses thereof” (National Research Council of Canada, priority 2010, dated 2015)

Key:
MMP-9 = test: Gelatin zymography of conditioned media from treated BxPC3 cells; assay type: cell-based, human; settings: for effect on MMP-9 activity: media from treated BxPC3 cells
Method: (§1) Gelatin zymography is used to detect the activity of gelatinases, namely, matrix metalloproteinases MMP-2 and MMP-9 (28).
(§2) The medium aliquots were taken from BxPC3 cultures at the time the proliferation assays (Example 9) were performed. For evaluation of dose-dependence effect, antibodies and gemcitabine were used at concentrations of 0.4-25 μM and 0.4-50 nM, respectively. The media were applied to a 10% sodium dodecyl sulfate-polyacrylamide gel electrophoresis gel (SDS-PAGE) that was supplemented with 1.5 mg/ml gelatin. The gel was run at 150 V until the bromophenol blue dye reached the bottom of the gel. SDS was removed from the gel by washing the gel four times with 2.5% Triton X-100 for 30 min at room temperature with gentle shaking using an orbital shaker (28). The gel was then incubated overnight at 37° C. in development buffer comprising 50 mM Tris-HCl, 0.2 M NaCl, 5 mM CaCl2, 5 mM ZnCl2, 0.02% Brij-35, and 0.05% NaN3 at pH 7.4. Gelatinase-digested gelatine-supplemented gels were stained with Coomassie blue. Clean bands produced by MMP-2 and MMP-9 activity were visible against the blue background after de-staining. The relative activities of the gelatinases were determined by using a densitometer (AlphaView, Fluor Chem SP, Alpha Innotech Corporation, San Leandro, Calif., USA).

MMP-2 = test: as above; assay type: cell-based, human
Method: as §1, §2

HUVECs = test: In vitro capillary formation assay with conditioned media of treated BxPC3 cells; assay type: cell-based, human; settings: for inhibition of tubule formation (endothelial cell angiogenesis): HUVEC in conditioned media from BxPC3 cells treated 24 hrs, 16 h culture
From the text: Angiogenesis is another critical step in the progression of pancreatic cancer. Relatively complex and dense micro-vessels are localized in pancreatic cancer tissue. Highly vascular tumors are associated with an increased risk of hepatic metastasis and a poor survival rate (Semenza, 2003). Anti-angiogenesis is a valid strategy when employing pancreatic cancer target therapy. Thus, the in vitro capillary formation assay was used to test the ability of conditioned media of sdAb-treated BxPC3 cells to inhibit HUVECs angiogenesis.
The matrix was then polymerized at 37° C. for 30 min. […] HUVEC cells were then seeded onto the polymerized matrix at 5×10^4 cells per well. The cells were cultured at 37° C. for 16 h then stained with Calcein AM (Invitrogen) for 30 min. Photographs were taken at 100× magnification employing fluorescence microscopy (Olympus BX51). Three fields that were randomly chosen were captured and the lengths of the capillaries in each field were measured.

BxPC3 cells [1] = test: Matrigel invasion assay; assay type: cell-based, human; settings: for invasiveness of treated cells decreased to: 40 μM, 20 hrs, normalized to non-treated control
Method: Matrigel invasion assay is designed to evaluate the capability of cells to invade into matrigel, an indication of the capacity to metastasize.
The assay was carried out by using bio-coated Matrigel invasion chambers (BD Biosciences, Bedford, Mass.). […] Only cells that could digest the matrix could migrate through the pores. […] The cells were re-suspended in RPMI medium and seeded on the tops of insert wells at 1×10^5 cells/well density and cultured at 37° C. in a humidified CO2 chamber. After 20 hrs, the non-invasive cells were scrubbed from the top of the insert well using a cotton-swap. The invasive cells on the bottom surface were stained with Calcein AM (Invitrogen) and were photographed with an Olympus BX51 microscope. All experiments were performed in triplicate.

BxPC3 cells [2] = test: In vitro MTT cell proliferation assay; assay type: cell-based, human; settings: for inhibition of BxPC3 cell proliferation: vs starvation medium control
Method: (§3) Cells were left to grow for 72 h in the presence of the sdAb, then assayed for viability. Briefly, 20 μl of MTT reagent (2 mg/ml in PBS) was added to each well. After four hours, the supernatant was removed, adherent cells were lysed, and the crystals were solubilized with 100 μl dimethyl sulfoxide (DMSO, Sigma) per well. The absorbance of the formazan product was measured with a plate reader at a wavelength of 570 nm. After subtracting background absorbance, results were expressed as absorbance.
as §2

CEACAM6 N-domain [3] = target: T1, CEACAM6 N-domain (Homo sapiens, UniProt P40199); test: Affinity measurement by surface plasmon resonance (Biacore 3000); parameters: made in house; host or cells: E. coli; settings: SPR, CEACAM6 immobilized, 1:1 Langmuir binding model
T1 sequence (P40199 35-142 limits assumed): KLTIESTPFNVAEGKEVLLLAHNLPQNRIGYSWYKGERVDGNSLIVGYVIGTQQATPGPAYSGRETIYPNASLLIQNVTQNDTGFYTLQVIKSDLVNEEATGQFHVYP
Method: 209 RUs of CEACAM6 and 1746 RUs of Ovalbumin (as reference protein) were immobilized on research grade sensor chip CM5 (GE HealthCare). Immobilizations were performed with an amine-coupling kit (GE Healthcare) and carried out at 50 μg/ml CEACAM6 in 10 mM Acetate, pH 4 (GE Healthcare) and 50 μg/ml of Ovalbumin in 10 mM Acetate, pH 4.5. 120 μL of the sdAb at concentration of 1 nM to 60 nM were injected over the surfaces at a flow rate of 40 μl/min. Analyses were carried out at room temperature in HBS-EP, 10 mM HEPES pH 7.4, 150 mM NaCl, 3 mM EDTA and 0.005% surfactant P20 (GE Healthcare). Regeneration was performed with running buffer (HBS-EP). Data were analyzed with BIAevaluation software 4.1.
One hundred twenty microliters of CEACAM6 recombinant protein at concentration of 0.1 nM to 200 nM was injected over the surfaces at a flow rate of 40 μl min-1. Analyses were carried out at room temperature in HBS-EP comprising 10 mM HEPES pH 7.4, 150 mM NaCl, 3 mM EDTA and 0.005% surfactant P20 (GE Healthcare). Regeneration was performed with HBS-EP used as running buffer. The data were analyzed by using BIAevaluation software 4.1.

CEACAM6 N-domain [4] = target: T1, CEACAM6 N-domain
Method: Maxisorb 96-well microtiter plates (Nunc) were coated with 2 μg/ml recombinant CEACAM6 protein (N-domain) overnight at 4° C. in phosphate-buffered saline (PBS). 2% fat-free dry milk solution in PBS was used for 2 h at room temperature to block the residual protein-binding sites in the wells. Serial diluted serum or soluble recombinant sdAbs were added to the wells, which were incubated at 37° C. for 24 hr. Detection of llama IgGs and sdAb was performed with goat anti-llama IgG (Bethyl Lab, Montgomery, Tex.), horseradish peroxidase anti-goat conjugate (Cedarlane, Burlington, ON) and the corresponding substrate KPL for peroxidase. The reaction was stopped by adding 1 M H3PO4 and the absorption at 405 nm was measured.
The sdAb was incubated in mouse serum and the residual binding capacity was measured by ELISA then compared with the same antibody that was not incubated in serum.

LS174T cells = test: Flow cytometry with FITC-labelled sdAb; assay type: cell-based, human; settings: FITC-labelled 2A3, 5 μg/ml, fixed LS174 cells, FACS
Method: (§4) For flow cytometry, purified sdAbs were labelled with FITC as instructed by the manufacturer (Invitrogen). Different cell lines were grown as a monolayer until they were approximately 80% confluent. After fixing by 10% formaldehyde in PBS for 10 minutes, cells were washed with PBS then incubated at room temperature with different FITC-labelled sdAbs. After one hour of incubation, cells were washed twice with PBS to remove unbound sdAbs and the cells were analyzed by flow cytometry using a FACS Canto flow cytometer (BD Bio-sciences).

A549 cells [5] = test: Flow cytometry with FITC-labelled sdAb; assay type: cell-based, human; settings: FITC-labelled 2A3, 5 μg/ml, fixed A549 cells, FACS
Method: as §4

BxPC3 cells [6] = test: Flow cytometry with FITC-labelled sdAb; assay type: cell-based, human; settings: FITC-labelled 2A3, 5 μg/ml, fixed BxPC3 cells, FACS
Method: as §4

A549 cells [7] = test: In vitro MTT cell proliferation assay; assay type: cell-based, human; settings: 125 μg/ml antibody
Method: as §3

LS174 cells = test: In vitro MTT cell proliferation assay; assay type: cell-based, human; settings: 125 μg/ml antibody
Method: as §3

UM-SCC-22B cells = test: Cell uptake of 64Cu-labelled tracer; assay type: cell-based, human; settings: 22B cells compared with BxPC3 cells
Method: (§5) Cell uptake, internalization, and efflux of ^64Cu-DOTA-2A3-Fc were performed with BxPC3 and UM-SCC-22B tumor cells (negative control). For cell uptake, the cells were seeded into 24-well plates at a density of 1×10^5 cells per well and incubated with 18.5 kBq (0.5 μCi/5 ng)/well of ^64Cu-labelled tracer at 37° C. for 15, 30, 60, and 120 min. The cells were then washed three times with chilled PBS and lysed with 500 μL 0.1 M NaOH. For efflux studies, about 18.5 kBq (0.5 μCi)/well of ^64Cu-DOTA-2A3-mFc were first incubated with BxPC3 cells in 24-well plates for 2 h at 37° C. The cells were washed three times with chilled PBS and allowed to stand with fresh buffer. At various time points, the medium was removed and the cells washed three times with chilled PBS. The cells were then lysed with 500 μL 0.1 M NaOH. The cell lysate was collected and the remaining radioactivity was measured in a γ counter (Packard, Meriden, Conn.). The cell uptake, and efflux were expressed as the percentage of the added dose (% AD) after decay correction. All experiments were performed with triplicate wells.

BxPC3 cells [8] = test: Cell uptake and efflux of 64Cu-labelled tracer; assay type: cell-based, human
Method: as §5

BxPC3 tumor [9] = test: Ex vivo biodistribution (γ-counter); settings: 64Cu-DOTA-labelled, 24 hr p.i., n=4
Method: Blood, tumor, major organs, and tissues were collected and wet-weighed. The radioactivity in the wet whole tissue was measured with a γ-counter (Packard). The results were expressed as percentage of injected dose per gram of tissue (% ID/g) for a group of 4 animals. For each mouse, the radioactivity of the tissue samples was calibrated against a known aliquot of the injected radiotracer and normalized to a body mass of 20 g. Values were expressed as mean±SD (n=4/group).

BxPC3 tumor [10] = test: Small animal PET imaging and ROI analysis
Method: Subcutaneous BxPC3 tumor model was established in 5 to 6-week-old female athymic nude mice obtained from Harlan (Indianapolis, Ind.); 5×10^6 cells suspended in 50 μl of phosphate buffered saline (PBS) were injected and the mice underwent small animal PET studies when the tumor volume reached 100-200 mm^3 (3-4 weeks after inoculation). PET scans and image analysis were performed using an Inveon microPET scanner (Siemens Medical Solutions). About 3.7 MBq (100 μCi/5 μg) of ^64Cu-DOTA-Abs were administered via tail vein injection under isoflurane anesthesia. Five-minute static PET images were acquired at different time points post-injection (p.i.; n=4/group). The images were reconstructed using a two-dimensional ordered-subset expectation maximization (2D OSEM) algorithm, and no correction was applied for attenuation or scattering. For each scan, regions of interest (ROIs) were drawn over the tumor and major organs using vendor software (ASI Pro 5.2.4.0) on decay-corrected whole-body coronal images. The radioactivity concentrations (accumulation) within the tumors, muscle, liver, and kidneys were obtained from mean pixel values within the multiple ROI volume and then converted to MBq per milliliter per minute using the calibration factor determined for the Inveon PET system. […]

Nc1ccn([C@@H]2O[C@H](CO)[C@@H](O)C2(F)F)c(=O)n1 [gemcitabine, reference compound]
increase of MMP-9 activity (MMP-9; at high dosages): ~10% | effect on MMP-9 activity (MMP-9): slightly increased MMP-9 activity | increase of MMP-2 activity (MMP-2; at high dosages): ~10% | effect on MMP-2 activity (MMP-2; media from treated BxPC3 cells): does not affect MMP-2 and MMP-9 activity | effect on angiogenesis (HUVECs; culture medium from treated BxPC3 cells): inhibitory effects on angiogenesis were not seen | effect on invasion (BxPC3 cells [1]): did not affect angiogenesis or invasion | IC50 (BxPC3 cells [2]; Homo sapiens, BXPC-3, 72 h, MTT, n=5): 0.012 µM

B1: 2A3: anti-CEACAM6 llama single domain antibody (sdAb), SEQ ID NO:4 (protein)
VHH: QVKLEESGGGLVQAGGSLRLSCRTSGRTNSVYTMGWFRQAPGKEREFVAQIMWGAGTNTHYADSVKGRFTISRDSAESTVYLQMNSLKPEDTAVYYCAANRGIPIAGRQYDYWGQGTQVTVSS
modifications: Anti-CEACAM6 sdAb
MMP-9 activity reduced to (MMP-9; 5 μM dosage): 25% | culture medium MMP-9 activity down-regulated by (MMP-9; 2A3-treated BxPC3 compared to non-treated cells): 33% | effect on MMP-9 activity (MMP-9): reduce the activity of MMP-9 | effect on MMP-2 activity (MMP-2; 5 μM dosage): did not influence MMP-2 activity significantly | effect on MMP-2 activity (MMP-2; media from treated BxPC3 cells): not MMP-2 activity | dissociation rate (kd) (CEACAM6 N-domain [3]): 0.0053 s⁻¹ | association rate (ka) (CEACAM6 N-domain [3]; sdAb 1 nM to 60 nM, room temperature): 1.1e+06 M⁻¹ s⁻¹ | residual binding capacity after incubation in mouse serum (CEACAM6 N-domain [4]): retained its full binding capacity | cells stained positive (LS174T cells): about 16% | cells stained positive (A549 cells [5]): ~20% | cells stained positive (BxPC3 cells [6]): approximately 90% | effect on A549 growth (A549 cells [7]): little effect on their growth | effect on LS174 growth (LS174 cells): little effect on their growth | inhibition of tubule formation (endothelial cell angiogenesis) (HUVECs): 21% | BxPC3 invasiveness reduced by (BxPC3 cells [1]): ~73% | invasiveness of treated cells decreased to (BxPC3 cells [1]): 27.4±8.4% | inhibition of BxPC3 cell proliferation (BxPC3 cells [2]; 50 μg/ml): approximately 27% | effect on BxPC3 proliferation (BxPC3 cells [2]; 125 μg/ml antibody, vs irrelevant sdAb BSA12, p<0.0001): inhibits BxPC3 proliferation in vitro

B2: ^64Cu-DOTA-2A3-Fc: 2A3-Fc conjugated with DOTA and labelled with 64Cu, PET tracer (conjugate)
chain: QVKLEESGGGLVQAGGSLRLSCRTSGRTNSVYTMGWFRQAPGKEREFVAQIMWGAGTNTHYADSVKGRFTISRDSAESTVYLQMNSLKPEDTAVYYCAANRGIPIAGRQYDYWGQGTQVTVSS
modifications: left off: a dimerising Fc or GST
cell uptake (UM-SCC-22B cells): much lower uptake | total cell uptake (BxPC3 cells [8]; 2 hr incubation, 37° C.): 10.13±0.05 % of total added dose | radioactivity retained on the cells (efflux) (BxPC3 cells [8]; after 2 h incubation in medium devoid of radioactivity): more than 65%

B3: 2A3-Fc: 2A3 sdAb fused to the mouse Fc2b fragment; heavy chain antibody (protein)
chain: QVKLEESGGGLVQAGGSLRLSCRTSGRTNSVYTMGWFRQAPGKEREFVAQIMWGAGTNTHYADSVKGRFTISRDSAESTVYLQMNSLKPEDTAVYYCAANRGIPIAGRQYDYWGQGTQVTVSS
modifications: left off: a dimerising Fc or GST
notes: heavy chain antibody
effect on MMP-9 activity (MMP-9): reduce the activity of MMP-9 | effect on MMP-2 activity (MMP-2; media from treated BxPC3 cells): not MMP-2 activity | BxPC3 tumor uptake, ex vivo (BxPC3 tumor [9]): 95.4±29.3 % ID/g | tumor uptake (BxPC3 tumor [10]; 64Cu-DOTA-labelled, PET ROI, 24 hr p.i.): 98.2±6.12 % ID/g | share of the total injected dose distributed to tumor region (BxPC3 tumor [10]; 24 hr after injection, average tumor size 184 mm^3): Roughly 18% | inhibition of tubule formation (endothelial cell angiogenesis) (HUVECs): 49% | invasiveness of treated cells decreased to (BxPC3 cells [1]): 27.4±4.8% | inhibition of BxPC3 cell proliferation (BxPC3 cells [2]; 360 μg/ml): 55%
